“Also recorded” adds a separate entry of the source. Like-named read-outs stand apart in the source and are kept apart here.

The test system of one series is MIAPaCa2GR cells. Description: MTT cytotoxicity of Gemcitabine, Gemcitabine-resistant MIAPaCa2GR. The series is classed as cell-based. The following applies: Homo sapiens. Here is the method: (§1) Human pancreatic cancer (PDAC) cell lines, BxPC3 and MIAPaCa2 were used in the present invention. Gemcitabine resistant BxPC3 cell line (BxPC3GR) was generated as a chemoresistant cell line against gemcitabine by culturing BxPC3 cells in media containing increasing concentrations of gemcitabine and then maintained them at 0.5 μM gemcitabine. Gemcitabine resistant MIAPaCa2 cell line (MIAPaCa2GR) was generated by culturing MIAPaCa2 cells in media containing increasing concentrations of gemcitabine and then maintained them at 0.12 μM gemcitabine. […] MIAPaCa2 and MIAPaCa2GR are maintained in DMEM with 10% FBS, 1% penicillin-streptomycin, and 1% L-Glutamine.
To validate the establishment of Gemcitabine-resistant pancreatic ductal adenocarcinoma (PDAC) cell lines, MTT of Gemcitabine gradient was implemented with parental cells and Gemcitabine-resistant (GR) cells. […]

In series [1] the test system is BxPC-3GR. Description: Cell proliferation assay (CCK-8), BxPC-3GR. The series is classed as cell-based, Human. The following applies: Gemcitabine 100 nM, ONCO P-8 400 ng/mL (47 nM), IL-8 200 ng/mL, 24 hours. Here is the method: The Gemcitabine-resistant cancer cells treated by Gemcitabine (100 nM) with ONCO P-8 (400 ng/mL, 47 nM), or treated by Gemcitabine with ONCO P-8 and IL-8 (200 ng/mL, 23.8 nM) for 24 hours.

The subject of the next series is BxPC-3 cells. Description: MTT cytotoxicity of Gemcitabine, parental BxPC-3. The series is classed as cell-based. The following applies: Homo sapiens, BxPC-3 parental cells. Here is the method: as §1
(§2) To validate the establishment of Gemcitabine-resistant pancreatic ductal adenocarcinoma (PDAC) cell lines, MTT of Gemcitabine gradient was implemented with parental cells and Gemcitabine-resistant (GR) cells.
(§3) BxPC-3 and BxPC-3GR treated with gemcitabine from 0 nM to 100 nM, and measured by MTT (FIG. 3a). Similarly, MIAPaCa2 and MIAPaCa2GR also treated with gemcitabine from 0 nM to 100 nM, and measured by MTT (FIG. 3b).

Another series has as its system MIAPaCa2 cells. Description: MTT cytotoxicity of Gemcitabine, parental MIAPaCa2. The series is classed as cell-based. The following applies: Homo sapiens, MIA PaCa-2. Here is the method: as §1, §2, §3
Another series concerns BxPC-3GR cells. Description: MTT cytotoxicity of Gemcitabine, Gemcitabine-resistant BxPC-3GR. Type of series: cell-based. The following applies: Homo sapiens. Here is the method: as §1, §2, §3
In series [2] the test system is BxPC-3GR. Description: Transwell invasion assay, BxPC-3GR. The following applies: Gemcitabine 100 nM; for invasion rate: ONCO P-8 400 ng/mL or IL-8 200 ng/mL, versus control. Type of series: cell-based, Human. Here is the method: (§4) The invasion ability of cell was performed by using 8 μm pore size transwell (Corning Fluor® Blok™). The transwell insert was coated with 60 μl matrigel (300 μg/ml in serum-free medium, BD Bioscience) overnight at 37° C. in 5% CO2 atmosphere. 2.5×10^4 cells in 0.2 mL of serum-free growth medium were seeded into the upper chamber coated with matrigel and then treated with IL-8 (200 ng/ml) with/without ONCO P-8 (400 ng/ml). After incubation for 24 hrs at 37° C. in 5% CO2, membrane of upper chamber was fixed with methanol and stained with propidium iodide (PI). The invasive cells in the bottom of membrane were imaged and counted by using an inverted fluorescence microscope (Observer.Z1, Zeiss) in five random fields of each specimen (magnification, ×100).
(§5) The Gemcitabine-resistant cancer cells treated by Gemcitabine (100 nM) with ONCO P-8 (400 ng/mL), or treated by Gemcitabine with ONCO P-8 and IL-8 (200 ng/mL), or treated by Gemcitabine with IL-8 respectively for invasion ability assay.
(§6) The drug concentration: ONCO P-8 (400 ng/ml), Reparixin (200 nM), IL-8 (200 ng/ml), statistical significance: *P<0.05, **P<0.01,***P<0.001.

The subject of series [3] is gemcitabine-resistant cell (BxPC-3GR). Description: Migration of Gemcitabine-resistant cancer cells. The series is classed as cell-based, Human. The following applies: ONCO P-8 400 ng/ml, IL-8 200 ng/ml. The protocol:
as §6

The test system of a further series is BxPC-3 cell line. Description: Transwell matrigel invasion assay, BxPC-3. The following applies: 24 hrs; for invasive rate: ONCO P-8 400 ng/ml or IL-8 200 ng/ml alone. Type of series: cell-based, Human. The protocol: as §4
A further series deals with T1, CXCR2 (Homo sapiens, UniProt P25025).
T1 sequence (P25025 1-360): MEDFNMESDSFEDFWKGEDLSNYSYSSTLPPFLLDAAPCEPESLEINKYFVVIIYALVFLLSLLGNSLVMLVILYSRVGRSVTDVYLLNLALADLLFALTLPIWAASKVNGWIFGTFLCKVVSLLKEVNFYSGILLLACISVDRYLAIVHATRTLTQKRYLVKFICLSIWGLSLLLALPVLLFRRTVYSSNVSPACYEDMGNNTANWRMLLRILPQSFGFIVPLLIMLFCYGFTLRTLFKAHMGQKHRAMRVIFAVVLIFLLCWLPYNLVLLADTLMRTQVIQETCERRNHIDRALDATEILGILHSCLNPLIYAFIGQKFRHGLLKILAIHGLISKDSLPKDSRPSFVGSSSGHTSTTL
Description: Indirect ELISA binding assay, CXCR2 complex formation. The following applies: versus IL-8. An excerpt:
(§7) The Kd Equation include: (1) i=A450nm/A^max450 nm, then i=Ligand/Ligand^max; (2) 1/(1−i)=(Ligtot/i)/Kd−b, b=fqSrec/Kd.

The next series concerns MIAPaCa2GR. Description: Transwell invasion assay, MIAPaCa2GR. Type of series: cell-based, Human. The following applies: Gemcitabine 100 nM. Here is the method: as §4, §5
The target in the next series is T2, CXCR1 (Homo sapiens, UniProt P25024).
T2 sequence (P25024 1-350): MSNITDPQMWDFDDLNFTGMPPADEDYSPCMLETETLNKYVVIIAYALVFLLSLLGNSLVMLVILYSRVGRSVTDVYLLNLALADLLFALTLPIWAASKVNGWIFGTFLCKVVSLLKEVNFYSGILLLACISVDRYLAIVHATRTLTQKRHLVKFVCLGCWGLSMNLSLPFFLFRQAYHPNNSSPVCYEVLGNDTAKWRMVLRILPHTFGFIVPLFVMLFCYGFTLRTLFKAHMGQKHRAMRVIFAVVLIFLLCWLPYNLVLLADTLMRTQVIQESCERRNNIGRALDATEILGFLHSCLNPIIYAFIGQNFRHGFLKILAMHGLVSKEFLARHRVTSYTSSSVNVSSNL
Description: Indirect ELISA binding assay, CXCR1 complex formation. The following applies: versus IL-8.
Source text: as §7
On the technique in general: An ELISA detects its analyte on a solid surface through an enzyme-linked reagent.

The next series deals with BxPC-3. Description: Colony formation assay, BxPC-3. Type of series: cell-based, Human. The following applies: IL-8 200 ng/ml, ONCO P-8 400 ng/ml, 2 weeks. Here is the method:
Cells were Seeded in a 24-Well Plate at a Density of 1000 Cells Per well, treatment were executed 24 hr after seeding. The treatment included that the cells were treated with IL-8 (200 ng/ml), IL-8 (200 ng/ml) plus ONCO P-8 (400 ng/ml), or ONCO P-8 (400 ng/ml). After 2 weeks, the medium was removed and cells were washed with PBS and stained for 30 min in 0.1% w/v crystal violet (dissolved in methanol; 32675, Fluka® Analytical, USA). Area of colonies were identified by camera and analyzed by ImageJ analysis software. The results were calculated as follows: Colony formation rate (%)=(Treatment area of the colony/Control area of the colony)×100%

Another series relates to BxPC-3 xenograft tumor. Type of series: in vivo, BALB/c nude mice. The protocol:
The PDAC xenograft tumor model treated by ONCO P-8, or treated by Gemcitabine with ONCO P-8, or treated by Gemcitabine, or treated by Gemcitabine, or treated PBS respectively. Gemcitabine administrations were about 100 mg/kg subject weight twice per week. ONCO P-8 administrations were about 500 μg/kg subject weight three times per week. […] The survival rate of xenograft model treated by ONCO P-8 or treated by Gemcitabine with ONCO P-8 is about 100%.
To evaluate the effect of ONCO P-8 in vivo, it was used the BxPC-3 model in 4-week old male BALB/c nude mice in the present invention. Mice were inoculated BxPC-3 cells subcutaneously. After 7 days, mice were treated with PBS or ONCO P-8 (500 μg/kg) by i.p injection three times a week. The initiation tumor size was 128.5±47.8 mm^3 in first treatment.

Series [4] deals with CSC markers (NANOG, OCT4, SOX2, ALDHA1, BMI-1, KLF4, Nestin) in BxPC3GR-derived spheroids. Description: RT-PCR of CSC markers in BxPC3GR-derived spheroids. The following applies: ONCO P-8 400 ng/ml (47 nM), Gemcitabine 100 nM. The series is classed as cell-based, Human. Here is the method: FIG. 12A-12G illustrate RT-PCR analysis was performed to determine the effect of ONCO P-8 treatment on the expression levels of NANOG (FIG. 12A), OCT4 (FIG. 12B), SOX2 (FIG. 12C), ALDHA1 (FIG. 12D), BMI-1 (FIG. 12E), KLF4 (FIG. 12F) and Nestin (FIG. 12G) in BxPC3GR-derived spheroids with Gemcitabine. Drug resistance related CSC marker: NANOG, OCT4, SOX2. Cell invasion related CSC marker: ALDHA1, BMI-1. Tumor growth related CSC marker: KLF4, Nestin.
All real-time PCR reactions were performed with specific primers and taqman probes or probes from the Universal Probe Library (Roche Applied Science) in the StepOneTMReal-Time PCR system (Applied Biosystems™). 18 s was used as an internal loading control. The reactions were performed as follows: denaturation for 2 min at 50° C. and 10 min at 95° C., 50 cycles of 95° C. for 15 sec, and 60° C. for 1 min. […] Sequences of all primers used are listed below (F: Forward primer; R: Reverse primer): […]

The mark [5] stands for this setting: IL-8 200 ng/mL + ONCO P-8 400 ng/mL versus IL-8 group.

Take `Nc1ccn([C@@H]2O[C@H](CO)[C@@H](O)C2(F)F)c(=O)n1` [Gemcitabine]: the IC50 amounted to 8620 nM in the series on MIAPaCa2GR cells; 6.13 nM with BxPC-3 cells; 251 nM in the series with MIAPaCa2 cells; 236 nM with BxPC-3GR cells (BxPC-3GR cells, read-out: IC50-value in BxPC-3GR cells); 236 nM with BxPC-3GR cells (BxPC-3GR resistant cells, read-out: IC50 (nM) Resistant cells). Also, the proliferation rate result in the series with BxPC-3GR [1] is listed as “enhanced”.

As for “IL-8: ELR-CXC chemokine CXCL8 (IL-8), ligand of CXCR1 and CXCR2 [reference compound]”, in the series on BxPC-3GR [2], the invasion rate result is “can enhance”. In series [3], the migration rate entry was “can enhance the cell migration”. Moreover, the invasive rate entry in the series on BxPC-3 cell line is given as “can enhance the cell invasion”.

B1: ONCO P-8: chemokine receptor antagonistic modified peptide (SEQ ID NO: 1), analogous protein of CXCL8 (IL-8), antagonist of CXCR1 and CXCR2 (protein)
chain: GSKELRCQCIRSYSKPFHPKFIKELRVIPASQFCANTEIIVKLSDGRELCLDPKENWVQRVVEKFLKRAENS
modifications: ONCO P-8
In the case of B1, in the series with CXCR2, the “bind to CXCR2 tighter than IL-8” value is 3-4 fold. For the same molecule, the entries for the “invasion rate in presence of IL-8” value in the series on MIAPaCa2GR (setting [5]) and in the series on BxPC-3GR [2] (setting [5]) were “can prevent significantly invasion rate” and “can prevent significantly invasion rate; also recorded: can neutralize the effect of CXCL8 to reduce the invasive rate”, respectively. Also, the invasion rate result in the series with MIAPaCa2GR (ONCO P-8 400 ng/mL, versus control) is “decreases invasion rate; also recorded: can inhibit the invasion ability”; in the series on BxPC-3GR [2] it was “decreases invasion rate; also recorded: can reduce; also recorded: can inhibit the invasion ability; also recorded: can attenuate”. In addition, the “bind to CXCR1 tighter than IL-8” value with CXCR1 is recorded as 3-4 fold. Further, in the series with BxPC-3, the colony formation rate result is listed as “can neutralize the effect of CXCL8 to reduce the colony formation rate”. Further, in the series on BxPC-3 xenograft tumor (BxPC-3 xenograft), the “survival rate / lifespan” value was “improve the survival rate”. Moreover, the survival rate result in the series on BxPC-3 xenograft tumor (BxPC-3 xenograft, FIG. 13C) is on record as “about 100%”. Further, the “tumor growth (tumor size)” value with BxPC-3 xenograft tumor (BxPC-3 xenograft, ONCO P-8 500 μg/kg i.p. three times a week, Gemcitabine 100 mg/kg twice per week) was “significantly inhibited the tumor growth”. The “body weight of mice” value in the series with BxPC-3 xenograft tumor (mouse, in vivo, ip) was “didn't lead to reduce the body weight”. For the same molecule, the proliferation rate result with BxPC-3GR [1] is given as “significantly attenuated; also recorded: inhibited”. Moreover, in [3], the migration rate entry is recorded as “can reduce the migration rate; also recorded: can attenuate”. Also, the “invasive rate in presence of CXCL8” value with BxPC-3 cell line (IL-8 200 ng/ml with ONCO P-8 400 ng/ml) is recorded as “can neutralize the effect of CXCL8 to reduce the invasive rate”. In addition, in the series on BxPC-3 cell line, the invasive rate result is reported as “can reduce the invasive rate”. In addition, in series [4], the “expression of CSC properties markers” value is “can reduce the expression of these CSC properties markers”.

One may read the IC50 as the concentration needed to halve the response being measured.

Source of the values: patent US12472227B2, “Pharmaceutical compositions and use thereof for relieving resistance due to cancer chemotherapy and enhancing effect of cancer chemotherapy” (Rise Biopharmaceuticals Inc., priority 2015, dated 2025).
